Experimental data from paper PMC5030187 (Biochemistry, 2016).

Molecular target: the molecule itself
Assay: crystal structure

B1: Ag(I)-bound periplasmic sensor domain of E. coli histidine kinase CusS, CusS(39-187) (domain or fragment, UniProt P77485 39-187, looked up)
chain: VKVHFAEQDINDLKEISATLERVLNHPDETQARRLMTLEDIVSGYSNVLISLADSQGKTVYHSPGAPDIREFTRDAIPDKDAQGGEVYLLSGPTMMMPGHGHGHMEHSNWRMINLPVGPLVDGKPIYTLYIALSIDFHLHYINDLMNKL
- stoichiometry N: 2
